The text below walks through data of PMC3967765 (Archives of biochemistry and biophysics, 2014).

For series [1], the target named is T1, huCOX-2 (human cyclooxygenase-2) (Homo sapiens, UniProt P35354, N580A).
T1 sequence (P35354 18-604 N580A): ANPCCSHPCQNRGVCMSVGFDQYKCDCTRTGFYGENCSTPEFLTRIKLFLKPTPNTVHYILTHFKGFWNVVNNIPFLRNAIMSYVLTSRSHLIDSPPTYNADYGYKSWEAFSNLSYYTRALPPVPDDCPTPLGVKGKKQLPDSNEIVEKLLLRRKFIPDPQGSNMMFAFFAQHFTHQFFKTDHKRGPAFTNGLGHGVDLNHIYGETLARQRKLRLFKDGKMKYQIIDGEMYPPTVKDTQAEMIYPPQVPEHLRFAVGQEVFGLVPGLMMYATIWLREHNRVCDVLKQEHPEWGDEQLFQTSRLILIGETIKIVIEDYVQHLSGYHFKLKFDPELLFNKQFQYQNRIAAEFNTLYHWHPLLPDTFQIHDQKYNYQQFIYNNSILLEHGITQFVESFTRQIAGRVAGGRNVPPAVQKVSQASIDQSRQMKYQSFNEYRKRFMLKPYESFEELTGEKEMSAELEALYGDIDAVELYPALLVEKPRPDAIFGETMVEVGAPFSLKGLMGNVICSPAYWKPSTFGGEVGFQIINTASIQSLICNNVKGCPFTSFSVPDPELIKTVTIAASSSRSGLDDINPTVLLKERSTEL

Series [2] addresses T1, huCOX-2 (human cyclooxygenase-2). Conditions: oxygen electrode.
Substrate in series [3]: CC/C=C\C/C=C\C/C=C\C/C=C\C/C=C\CCCC(=O)O
Briefly: purified protein. The conditions noted are these: heme (Fe3+-protoporphyrin IX).

Substrate in series [4]: CCCCC/C=C\C/C=C\C/C=C\C/C=C\CCCC(=O)O
The experiment in a line: purified protein. The conditions noted are these: heme (Fe3+-protoporphyrin IX).

Substrate in series [5]: CCCCC/C=C\C/C=C\C/C=C\C/C=C\CCCC(=O)OCC(O)CO
The experiment in a line: purified protein. Conditions: heme (Fe3+-protoporphyrin IX).

The series “SEC” concerns the molecule itself. Briefly: SEC. For orientation: Size exclusion chromatography separates by hydrodynamic size, large species first.

As to `Cc1ccc(Cl)c(Nc2ccccc2C(=O)O)c1Cl` [Meclo, meclofenamic acid], in series [1], the “oxygen electrode, 50 μM inhibitor, 30 min pre-incubation” value is “Flurbiprofen, indomethacin, meclofenamic acid, and celecoxib caused near complete inhibition of cyclooxygenase activity”.

Turning to `COc1ccc2cc([C@H](C)C(=O)O)ccc2c1` [Napx, naproxen], the “% loss of activity” value in series [2] was 60-70 % loss of activity.

B1: FLAG N580A murine (mu) COX-2 (enzyme, UniProt Q05769 18-604, looked up)
chain: ANPCCSNPCQNRGECMSTGFDQYKCDCTRTGFYGENCTTPEFLTRIKLLLKPTPNTVHYILTHFKGVWNIVNNIPFLRSLIMKYVLTSRSYLIDSPPTYNVHYGYKSWEAFSNLSYYTRALPPVADDCPTPMGVKGNKELPDSKEVLEKVLLRREFIPDPQGSNMMFAFFAQHFTHQFFKTDHKRGPGFTRGLGHGVDLNHIYGETLDRQHKLRLFKDGKLKYQVIGGEVYPPTVKDTQVEMIYPPHIPENLQFAVGQEVFGLVPGLMMYATIWLREHNRVCDILKQEHPEWGDEQLFQTSRLILIGETIKIVIEDYVQHLSGYHFKLKFDPELLFNQQFQYQNRIASEFNTLYHWHPLLPDTFNIEDQEYSFKQFLYNNSILLEHGLTQFVESFTRQIAGRVAGGRNVPIAVQAVAKASIDQSREMKYQSLNEYRKRFSLKPYTSFEELTGEKEMAAELKALYSDIDVMELYPALLVEKPRPDAIFGETMVELGAPFSLKGLMGNPICSPQYWKPSTFGGEVGFKIINTASIQSLICNNVKGCPFTSFNVQDPQPTKTATIAASASHSRLDDINPTVLIKRRSTEL
The term Km denotes the concentration of substrate that gives half-maximal velocity. As usually defined, the kcat is the maximal rate divided by the concentration of active sites. A word on the kcat/Km: it is the turnover number divided by the Michaelis constant. As a reminder, the stoichiometry N is the number of molecules, sites or subunits per partner or assembly. On to B1, for which, in the series “purified protein [3]”, the Michaelis constant (Km) worked out at 1.9 µM, the kcat was determined as 6.3 s⁻¹ and the specificity constant (kcat/Km) turned out to be 3.3e+06 M⁻¹ s⁻¹. Further, in “purified protein [4]”, the Km came out at 6.8 µM, the kcat is 36.1 s⁻¹ and the kcat/Km came to 5.3e+06 M⁻¹ s⁻¹. Moreover, in the series “purified protein [5]”, the Michaelis constant (Km) is given as 6.8 µM, the kcat amounted to 30.9 ± 0.7 s⁻¹ and the kcat/Km is 4.5e+06 M⁻¹ s⁻¹. The “stoichiometry N” value in “SEC” was found to be 2.
